Blank lines part the entries; values can stand above or below the substance they belong to.
Experiments:
BvPIP1;1 (Beta vulgaris) [1] = molecular target: BvPIP1;1 (Beta vulgaris)
BvPIP1;1 (Beta vulgaris) [2] = molecular target: BvPIP1;1 (Beta vulgaris); remark: listed apart in the source

maximal inhibition of Pf by cytosolic acidification in oocytes co-injected with BvPIP2;1 and BvPIP1;1 cRNA (1:1 mass ratio); not significantly different from BvPIP2;1 alone (BvPIP1;1 (Beta vulgaris) [1]): 87%
Substance: BvPIP2;1 (natural protein)

oocyte membrane Pf on co-injection of BvPIP1;1 and BvPIP2;1 N64H/E65Q cRNA, against the mutant alone (BvPIP1;1 (Beta vulgaris) [2]): 4.3 fold
Substance: BvPIP2;1 N64H/E65Q (natural protein)

oocyte membrane Pf on co-injection of BvPIP1;1 and BvPIP2;1 N64I/E65Q cRNA, against the mutant alone (BvPIP1;1 (Beta vulgaris) [2]): 4.1 fold
Substance: BvPIP2;1 N64I/E65Q (natural protein)
